The test concerns the target SAM. The test can be described thus: native mass spectrometry. The following applies: protein and substrate concentrations 5 µM.

As for “GLP methyltransferase domain (aa 1001-1266), wild type (from UniProt Q9H9B1-1) C1073Y”, where the note is “parent: 11”, the other: relative abundance, 1x SAM bound was 18. Under “parent: 88”, the other: relative abundance, free protein was found to be 80.

The record behind these values is publication PMC13462943.
